Experimental data reported in patent US20250361297A1, “ANTI- SIGLEC-15 BINDING MOLECULES AND METHODS OF USE” (ADAPTAM THERAPEUTICS, S.L., priority 2024, published 2025).

Assays:
[1] = system: recombinant cynomolgus Siglec-15 protein; assay: ELISA binding to recombinant cynomolgus Siglec-15 protein; design: species or system cynomolgus monkey; conditions: ELISA (FIG. 11B)
Experimental: Binding to human, cynomolgus and mouse Siglec-15 by ELISA: 96-well micro plates were coated with 50 μl of 2 μg/ml cynomolgus Siglec-15-his protein (Bonopusbio, CW70-50 ug), or 2 μg/ml mouse Siglec-15-his protein (Bonopusbio, CW71-50 ug), or 2 μg/ml human Siglec-15-his protein (Bonopusbio, CW37-50 ug) in carbonate/bicarbonate buffer (pH 9.6) overnight at 4° C. ELISA plates were washed once with wash buffer (PBS+0.1% v/v Tween-20, PBST) and then blocked with 200 μl/well blocking buffer (3% w/v non-fatty milk in PBST) 1 hour at room temperature. Plates were washed 3 times and incubated with […] serially diluted anti-Siglec-15 antibodies of the disclosure or controls (starting at 198 nM, 3-fold serial dilution in PBST with 1% w/v non-fatty milk) for 2 hours at room temperature. ELISA plates were washed 3 times again and incubated with Peroxidase Goat anti-Human IgG Fc Secondary Antibody (100 μl, 1:5000 dilution in PBST buffer, A18817 Thermo Scientific) for 1 hour at room temperature. After another 3 washes, plates were incubated with 100 μl/well TMB (N301, Thermo Scientific). The reaction was stopped 2 minutes later at room temperature with 50 μl of STOP solution (N600, Thermo Scientific), and the absorbance of each well was read on a NIVO microplate reader at 450. OD values were plotted against antibody concentration. Data was analyzed using Graphpad Prism software.

[2] = system: osteoclast differentiation; assay: Osteoclast differentiation in vitro (TRACP 5b in culture medium); type: cell-based; conditions: relative to baseline levels; culture medium at day 7 (FIG. 46)
human Siglec-15 = target: T1, human Siglec-15 (Homo sapiens, UniProt Q6ZMC9); assay: Competitive flow cytometry assay with benchmark antibodies; type: binding
T1 construct: expressed in transfected cells
T1 sequence (Q6ZMC9 20-328): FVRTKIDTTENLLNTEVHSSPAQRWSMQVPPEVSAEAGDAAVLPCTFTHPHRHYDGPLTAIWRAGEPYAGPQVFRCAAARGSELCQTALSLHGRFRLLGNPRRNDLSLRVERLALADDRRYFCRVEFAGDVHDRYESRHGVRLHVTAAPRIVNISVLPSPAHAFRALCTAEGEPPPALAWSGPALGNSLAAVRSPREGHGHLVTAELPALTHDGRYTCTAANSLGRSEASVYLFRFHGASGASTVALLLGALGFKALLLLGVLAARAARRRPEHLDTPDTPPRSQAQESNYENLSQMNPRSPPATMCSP
Experimental: Epitope mapping assay by Flow cytometry: Competition with benchmark mouse IgG antibodies: 50,000 cells/well of THP-1 S15 OE were added to a round bottom 96 well plate, and centrifuged at 450×G for 5 minutes, and the supernatant was discarded. Human anti-siglec-15 IgG antibodies (starting at 198 nM, 3-fold serial dilution in staining buffer) were added to 100 μl of staining buffer and cells were resuspended with it and incubated for 40 minutes on ice. 100 μl of staining buffer were added to wells, centrifuged at 450× G for 5 minutes and the supernatants discarded. Benchmark mouse IgG antibodies were diluted at 33.3 nM and cells resuspended in 100 μl of the mix and incubated for 40 minutes on ice. Then, 100 μl of staining buffer were added to wells, centrifuged at 450×G for 5 minutes and the supernatants discarded. The secondary antibody anti-mouse IgG-Alexa647 was prepared at 1:200 dilution in 100 μl of staining buffer and added to each well, and cells were incubated for 40 minutes on ice. Cells were washed with 100 μl of staining buffer and centrifuged at 450×G for 5 minutes to discard the supernatant. Cells were resuspended in 150 μl of staining buffer and acquired in a flow cytometer.

[3] = target: T2, Siglec-15 on human macrophages (Homo sapiens, UniProt Q6ZMC9); assay: Flow cytometry binding to Siglec-15 positive human macrophages; conditions: compared to clone 5G12 (FIG. 3)
T2 construct: endogenous in cells; host or cells: human monocyte-derived macrophages from donor PBMCs
T2 sequence (Q6ZMC9 20-328): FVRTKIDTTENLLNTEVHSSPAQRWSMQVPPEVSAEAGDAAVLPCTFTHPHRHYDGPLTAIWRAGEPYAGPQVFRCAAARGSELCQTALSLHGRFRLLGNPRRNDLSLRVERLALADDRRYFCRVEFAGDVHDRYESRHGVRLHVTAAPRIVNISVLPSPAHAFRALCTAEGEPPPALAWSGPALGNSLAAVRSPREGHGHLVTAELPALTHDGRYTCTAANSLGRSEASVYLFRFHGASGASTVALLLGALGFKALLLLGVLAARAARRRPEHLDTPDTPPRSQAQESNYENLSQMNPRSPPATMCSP
Experimental: Post-polarization, the macrophages were harvested, washed using Flow Cytometry Staining Buffer (00-4222-26, Thermo Fisher Scientific), and subsequently incubated with fluorochrome-conjugated antibodies against Siglec-15, PD-L1, CD206, and CD163. This step was performed for 30 minutes at 4° C. in a dark environment to prevent photobleaching of the fluorochromes and to maintain the integrity of the antibodies.
Following incubation, the cells underwent a second washing step and then resuspended in 200 μL of Flow Cytometry Staining Buffer containing DAPI (1:10,000) (D1306, Invitrogen). DAPI is a nuclear stain that facilitates the identification of viable cells and enables the exclusion of dead cells or debris during analysis. The stained cells were analyzed using a FACSymphony flow cytometer (BD Biosciences). The flow cytometry data were then processed and analyzed using FlowJo software (BD Biosciences).

osteoclast activation = assay: Osteoclast activation in vitro (CTX-I in culture medium); type: cell-based; conditions: relative to baseline; control odanacatib 1 μM (FIG. 47)

recombinant cynomolgus Siglec-15 protein, sequence (as listed by the source): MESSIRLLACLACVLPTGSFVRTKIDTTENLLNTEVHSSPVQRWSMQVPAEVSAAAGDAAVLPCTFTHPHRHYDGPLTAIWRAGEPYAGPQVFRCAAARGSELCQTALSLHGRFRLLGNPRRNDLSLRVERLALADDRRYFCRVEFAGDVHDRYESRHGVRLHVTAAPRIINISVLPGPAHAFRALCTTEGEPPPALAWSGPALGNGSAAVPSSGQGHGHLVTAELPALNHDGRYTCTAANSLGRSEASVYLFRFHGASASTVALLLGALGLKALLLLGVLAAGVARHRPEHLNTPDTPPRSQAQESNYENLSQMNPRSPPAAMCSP

B1: S15B1: parental mouse anti-Siglec-15 monoclonal antibody from hybridoma; VH SEQ ID NO: 18, VL SEQ ID NO: 19 (antibody, V domains shown)
VH: QVQLQQSGPELVKPGASVKISCKASGYAFSSSWMNWVKQRPGKGLEWIGRIYPGHGETNYNGKFKDKATVTADKSSSTTYMQLSSLTSEDSAVYFCARVDNSDPYYFDYWGQGTTLTVSS
VL: DIVLTQSPASLAVSLGQRATISCRASKSVSTSGYSYMHWYQQKPGQPPKLLIYLASNLESGVPARFSGSGSGTDFTLNIHPVEEEDAATYYCQHGRELPFTFGSGTKLEIK
modifications: Clone S15B1 VH; Clone S15B1 VL
extent of binding to cynomolgus Siglec-15 relative to 5G12 [1]: higher extent than 5G12
effect on osteoclast differentiation (TRACP 5b) [2]: did not significantly affect
inhibition of binding of 5G12 (benchmark 1) (human Siglec-15; competitive flow cytometry (FIG. 18A)): outperformed A2A5C7E8
inhibition of binding of A2A5C7E8 (benchmark 2) (human Siglec-15; competitive flow cytometry (FIG. 18B)): outperformed 5G12
binding to Siglec-15 on human macrophages [3]: superior binding
effect on osteoclast activation (CTX-I) (osteoclast activation): did not significantly affect
